# In patent EP4682164A1 (Curogen Technology Co., Ltd., dated 2026):
# Biological target: T1, human IL-17A (IL-17AA homodimer) (human, UniProt Q16552 20-155, limits assumed)
# T1 construct: also called hIL-17A; hIL-17AA
# Assay: ELISA, cytokine coated on plate, binder titrated, HRP secondary antibody
# T1 sequence (Q16552 20-155 limits assumed): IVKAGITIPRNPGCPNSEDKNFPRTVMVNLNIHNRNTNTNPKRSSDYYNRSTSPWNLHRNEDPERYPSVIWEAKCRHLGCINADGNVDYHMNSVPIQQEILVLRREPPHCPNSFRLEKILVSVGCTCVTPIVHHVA
row,EC50 [µg/mL],Binder
1,0.0087,"T1-T4-09 (Fc fusion, also called T1-T4-9; T1c-Fc-T4b) LRLLDHRAPVCSQPGLNCTVKNSDCLDDSWIHPRNLTPSSPKDLQIQLHFAHTQQGDLVPVAHIEWTLQTDASILYLEGAELSVLQLDTNERLCVRFEFLSKLRHHHRRWRFTFSHFVVDPGQEYEVTVHHLPKPIPDGDPNHQSKNFLVPDCEHPRMKVTTPCMSSALPWLNVSADGDNVHLVLNVSEEQHFGLSLYWNQVQGPPKPRWHKNLTGPQIITLNHTDLVPCLCIQVWPLEPDSVRTNICPFREDPRAHQNLWQAARLRLLTLQSWLLDAPCSLPAEAALCWRAPGGDPCQPLVPPLSWENVTVDKVLEFPLLKGHPNLCVQVNSSEKLQLQECLWADSLGPLKDDVLLLETRGPQDNRSLCALEPSGCTSLPSKASTRAARLGEYLLQDLQSGQCLQLWDDDLGALWACPMDKYIHKTGIEGRMDRNTGRGGEEKKKEKEKEEQEERETKTPECPSHTQPLGVFLFPPKPKDTLMISRTPEVTCVVVDVSQEDPEVQFNWYVDGVEVHNAKTKPREEQFNSTYRVVSVLTVLHQDWLNGKEYKCKVSNKGLPSSIEKTISKAKGQPREPQVYTLPPSQEEMTKNQVSLTCLVKGFYPSDIAVEWESNGQPENNYKTTPPVLDSDGSFFLYSRLTVDKSRWQEGNVFSCSVMHEALHNHYTQKSLSLSLGKGGGGSGGGGSGGGGSLELPAQVAFTPYAPEPGSTCRLREYYDQTAQMCCAKCPPGQHAKVFCTKTSDTVCDSCEDSTYTQLWNWVPECLSCGSRCSSDQVETQACTREQNRICTCRPGWYCALSKQEGCRLCAPLRKCRPGFGVARPGTETSDVVCKPCAPGTFSNTTSSTDICRPHQICNVVAIPGNASMDAVCTSTSPTRSMAPGAVHLPQPVSTRSQHTQPTPEPSTAPSTSFLLPMGPSPPAEGSTGD"
2,0.0106,"T1-T4-10 (Fc fusion, also called T1c-Fc-T4c; IL-17RA/RC-Fc-TNFR2) LRLLDHRAPVCSQPGLNCTVKNSDCLDDSWIHPRNLTPSSPKDLQIQLHFAHTQQGDLVPVAHIEWTLQTDASILYLEGAELSVLQLDTNERLCVRFEFLSKLRHHHRRWRFTFSHFVVDPGQEYEVTVHHLPKPIPDGDPNHQSKNFLVPDCEHPRMKVTTPCMSSALPWLNVSADGDNVHLVLNVSEEQHFGLSLYWNQVQGPPKPRWHKNLTGPQIITLNHTDLVPCLCIQVWPLEPDSVRTNICPFREDPRAHQNLWQAARLRLLTLQSWLLDAPCSLPAEAALCWRAPGGDPCQPLVPPLSWENVTVDKVLEFPLLKGHPNLCVQVNSSEKLQLQECLWADSLGPLKDDVLLLETRGPQDNRSLCALEPSGCTSLPSKASTRAARLGEYLLQDLQSGQCLQLWDDDLGALWACPMDKYIHKTGIEGRMDRNTGRGGEEKKKEKEKEEQEERETKTPECPSHTQPLGVFLFPPKPKDTLMISRTPEVTCVVVDVSQEDPEVQFNWYVDGVEVHNAKTKPREEQFNSTYRVVSVLTVLHQDWLNGKEYKCKVSNKGLPSSIEKTISKAKGQPREPQVYTLPPSQEEMTKNQVSLTCLVKGFYPSDIAVEWESNGQPENNYKTTPPVLDSDGSFFLYSRLTVDKSRWQEGNVFSCSVMHEALHNHYTQKSLSLSLGKGGGGSGGGGSGGGGSLELPAQVAFTPYAPEPGSTCRLREYYDQTAQMCCAKCPPGQHAKVFCTKTSDTVCDSCEDSTYTQLWNWVPECLSCGSRCSSDQVETQACTREQNRICTCRPGWYCALSKQEGCRLCAPLSKCRPGFGVARPGTETSDVVCKPCAPGTFSNTTSSTDICRPHQICNVVAIPGNASMDAVCTSTSPTRSMAPGAVHLPQPVSTRSQHTQPTPEPSTAPSTSFLLPMGPSPPAEGSTGD"

# The remaining lines, values behind:
row,Binder,EC50 [µg/mL]
1,"T1-T4-11 (Fc fusion, also called T1c-Fc-T4d; IL-17RA/RC-Fc-TNFR2) LRLLDHRAPVCSQPGLNCTVKNSDCLDDSWIHPRNLTPSSPKDLQIQLHFAHTQQGDLVPVAHIEWTLQTDASILYLEGAELSVLQLDTNERLCVRFEFLSKLRHHHRRWRFTFSHFVVDPGQEYEVTVHHLPKPIPDGDPNHQSKNFLVPDCEHPRMKVTTPCMSSALPWLNVSADGDNVHLVLNVSEEQHFGLSLYWNQVQGPPKPRWHKNLTGPQIITLNHTDLVPCLCIQVWPLEPDSVRTNICPFREDPRAHQNLWQAARLRLLTLQSWLLDAPCSLPAEAALCWRAPGGDPCQPLVPPLSWENVTVDKVLEFPLLKGHPNLCVQVNSSEKLQLQECLWADSLGPLKDDVLLLETRGPQDNRSLCALEPSGCTSLPSKASTRAARLGEYLLQDLQSGQCLQLWDDDLGALWACPMDKYIHKTGIEGRMDRNTGRGGEEKKKEKEKEEQEERETKTPECPSHTQPLGVFLFPPKPKDTLMISRTPEVTCVVVDVSQEDPEVQFNWYVDGVEVHNAKTKPREEQFNSTYRVVSVLTVLHQDWLNGKEYKCKVSNKGLPSSIEKTISKAKGQPREPQVYTLPPSQEEMTKNQVSLTCLVKGFYPSDIAVEWESNGQPENNYKTTPPVLDSDGSFFLYSRLTVDKSRWQEGNVFSCSVMHEALHNHYTQKSLSLSLGKGGGGSGGGGSGGGGSLELPAQVAFTPYAPEPGSTCRLREYYDQTAQMCCAKCPPGQHAKVFCTKTSDTVCDSCEDSTYTQLWNWVPECLSCGSRCSSDQVETQACTREQNRICTCRPGWYCALSKQEGCRLCAPLSKCRPGFGVARPGTETSDVVCKPCAPGTFSNTTSSTDICRPHQICSVVAIPGNASMDAVCTSTSPTRSMAPGAVHLPQPVSTRSQHTQPTPEPSTAPSTSFLLPMGPSPPAEGSTGD",0.0106
2,"T1-T4-08 (Fc fusion, also called T1-T4-8; T1c-Fc-T4a) LRLLDHRAPVCSQPGLNCTVKNSDCLDDSWIHPRNLTPSSPKDLQIQLHFAHTQQGDLVPVAHIEWTLQTDASILYLEGAELSVLQLDTNERLCVRFEFLSKLRHHHRRWRFTFSHFVVDPGQEYEVTVHHLPKPIPDGDPNHQSKNFLVPDCEHPRMKVTTPCMSSALPWLNVSADGDNVHLVLNVSEEQHFGLSLYWNQVQGPPKPRWHKNLTGPQIITLNHTDLVPCLCIQVWPLEPDSVRTNICPFREDPRAHQNLWQAARLRLLTLQSWLLDAPCSLPAEAALCWRAPGGDPCQPLVPPLSWENVTVDKVLEFPLLKGHPNLCVQVNSSEKLQLQECLWADSLGPLKDDVLLLETRGPQDNRSLCALEPSGCTSLPSKASTRAARLGEYLLQDLQSGQCLQLWDDDLGALWACPMDKYIHKTGIEGRMDRNTGRGGEEKKKEKEKEEQEERETKTPECPSHTQPLGVFLFPPKPKDTLMISRTPEVTCVVVDVSQEDPEVQFNWYVDGVEVHNAKTKPREEQFNSTYRVVSVLTVLHQDWLNGKEYKCKVSNKGLPSSIEKTISKAKGQPREPQVYTLPPSQEEMTKNQVSLTCLVKGFYPSDIAVEWESNGQPENNYKTTPPVLDSDGSFFLYSRLTVDKSRWQEGNVFSCSVMHEALHNHYTQKSLSLSLGKGGGGSGGGGSGGGGSLELPAQVAFTPYAPEPGSTCRLREYYDQTAQMCCAKCSPGQHAKVFCTKTSDTVCDSCEDSTYTQLWNWVPECLSCGSRCSSDQVETQACTREQNRICTCRPGWYCALSKQEGCRLCAPLRKCRPGFGVARPGTETSDVVCKPCAPGTFSNTTSSTDICRPHQICNVVAIPGNASMDAVCTSTSPTRSMAPGAVHLPQPVSTRSQHTQPTPEPSTAPSTSFLLPMGPSPPAEGSTGD",0.0126
